Reference: the DeepSol protein solubility set

Assay: soluble on expression in E. coli; label from the status in PepcDB or PDB records

Row | Sequence | soluble on expression in E. coli
1 | MLTLLNRWRSQPGGASNAAAFIRVLESPKSAVTDKVLVLKAFNDWDVLVNTWFEVADALPAVEQLLDNNTFPEHSSAALLVSKVYFCLEQYERALEFALRGDFNVVPATRTGLGNDAEYVNKIIETAIDTYKTLSKQGSGIPQKLRDLIDRIVARNLDKREIWFVISLGFETTNLAMIDRAISAMPADLTIKNQTTLVETLNRVVNGAFDRSFRFQVIDTVIKTYLKCPSPDMSKICECYVLTDNAEAAADTITSLIAKSLSTRAYQIAFDLYETASQGFLDRVLKRFQQQDARDEKSMEKIHSILKGHETVKAYLDFFVRHNHTDSVLMEEIKENIRTASAHNALLISNGLMQYGTTCDDFLRNNLNWVSKATNWNKFNAVASLGLIHHGQESSAMKVLEPYLPKESVEGFGFKEGGAMLAYGLIHAKHGDATAMSTLAQWLKTAENEPVRHGACLGFGVAGLGSSSVSNYEKVREVLQRDEAVSGESAGIAMGLIMAGHLNQEVFNELKQYTVDTQHDKTQRGIRTGLACAAFGLQGDAEPYIKEAIGAKSNPMLRSTGICMLSMAYAGTGSPDVVRRLLEKVATDPNLDVKRYATIGIGFVLSKDPSTCLSYVAMLTEHFNGHVRYGAAMALGIACAGTGNMEAIALIEPMISDKEGFVRKGALLSLALIMCQQTDYTCPKVNGFRKQLLKKIGEKNEDSLVKFGAIIAQGLLDIGGQNAAVTMQNSDKQPDMGSMVGMMCFLHGWFWHSMHFFIALAAKPSCLVMMNENLKIPVLDYICHANSQKFAYPPRAESKKDKDVKKIETVVLSITGKKNASKKLIAEEKKRREAAASASSAAAAPSSSSTSGTAPAAEDEKMEVDQPGKSKKEKAPEKDTKPLHRLQNPARVIPAQRQLISISDARAYSPMKPLYKGGIIVADRVDKEREEKLVSEVVTQVNTPASSGNTENKPHSTFEININDF | not soluble
2 | MAHHHHHHMRSLTRIASAGVRLDNIDLIGCVGATAAAKLPYTWQVGKSFSDNSASAAAAGGRTTSKITGSVYAVHQQHLFLPLTIEIGFGVQMKHDKDEEYVSRLVGGVLVRVNSSGTYGMLLDSSRFIMAGSAEMIILSKGQAPILRTSR | not soluble
3 | MRIGHGFDVHAFGGEGPIIIGGVRIPYEKGLLAHSDGDVALHALTDALLGAAALGDIGKLFPDTDPAFKGADSRELLREAWRRIQAKGYTLGNVDVTIIAQAPKMLPHIPQMRVFIAEDLGCHMDEVNVKATTTEKLGFTGRGEGIACEAVALLMKAAK | not soluble
4 | MPRFSCYEVRSEFPELERGIVYLDNAASTLKPRRVVEAMREFSYRSYANVHRGVHRLSMEASKAYEDAHEVVARLVGGSWDEVVFTRNTTEAMQLAALTLAYNGLLRGGEVLVTAADHHSTLLPWVRAARLGGGRARILPLDGRGVPRWDLLEDYITEDTRAVAVGHVSNVTGVVAPVEDIVKAAKKVGALVVLDSAQGVPHLPVDFRRMGVDMAAFSGHKMLGPTGIGVLWARRDLLEELEPPLGGGGTVSRVRLQGGSVEIEWEEPPWKFEAGTPPIIEAVGLAEAANMLMEIGMEHVARHEDELTSHTMKLLEPLYSEGLIRYVGPDKPGERHGIVSITTHLKSPDELGLLLDRRGIAVRTGLHCAHILHDHVDASMGSVWASFYIYNCKEDAERLAEALEEILTTRR | soluble
5 | MRRKNLFWDDVYKGTPPWDLDHPQPAFEALIKNGEIKPGRALDIGCGRGENAIILAMNGCDVIGIDLAENAISDAKAKATERHVKVKFVVEDALQMNRLFEEGEFDVVIDSGLFHVMMDEQRRVFAQQVHRVLREGGKYFMLCFSDKEPGEYELPRRLSKAEIESTFSPVFDITYIKEAVFDSLLSPSRRKAYLLSATRSLEHHHHHH | not soluble
6 | IINGEDCSPHSQPWQAALVMENELFCSGVLVHPQWVLSAAHCFQNSYTIGLGLHSLEADQEPGSQMVEASLSVRHPEYNRPLLANDLMLIKLDESVSESDTIRSISIASQCPTAGNSCLVSGWGLLANGRMPTVLQCVNVSVVSEEVCSKLYDPLYHPSMFCAGGGQDQKDSCNGDSGGPLICNGYLQGLVSFGKAPCGQVGVPGVYTNLCKFTEWIEKTVQA | soluble
7 | MSEAVKLDVGGTIFKTSKSTLTKFDGFFRTMLGSGIGLNVDESGCIFIDRSPKHFDLILNFMRDGCLALPKNERDLTELMAEAQYYLLDGLIDRLASSNWSVESDEKTINVAKRLPILENNSQFLQVLCNQEKPILLIVVMASRDHFFPNMSIPDGFNAYKFVEKYSHQFHIYFMSTFVAQFLTIRVKRNNKIVYLKRAAYVSSGQQE | not soluble
8 | MSLRATWGDVRQGLWMSLTRAGLLHLNADPDPKNWRPHILVLSGAPRRRWPVIELASALTHNQALMTVGTVLRPSEASDFEAQREAEATLREYLGSRGVQSLVRTTTAEDPFAGGERLIEDYGLGVLKPNTIMLGHTEDPTHHEQFCTLIKHLYAARRNVAVLRGGNQGFGNRERIDVWWSGLKGNGGLMKILAYLLQTNLEWQNAQVRVNVVADDDEEAEEQRQTVGPILDQLRTGAALNVIEADGRIFDEIVHDASADADIVFLGMATPDEEGDYVTYYTRLHERTAGLPPTVFVLAAEEISFRDVLALEHHHHHH | not soluble
9 | MRGSHHHHHHTDPALRAMRLVQLSRHSIAFPSPEGALREPNGLLALGGDLSPARLLMAYQRGIFPWFSPGDPILWWSPDPRAVLWPESLHISRSMKRFHKRSPYRVTMNYAFGQVIEGCASDREEGTWITRGVVEAYHRLHELGHAHSIEVWREDELVGGMYGVAQGTLFCGESMFSRMENASKTALLVFCEEFIGHGGKLIDCQVLNDHTASLGACEIPRRDYLNYLNQMRLGRLPNNFWVPRCLFSPQEGLCGR | soluble
10 | MSRSRQPPLVTGISPNEGIPWTKVTIRGENLGTGPTDLIGLTICGHNCLLTAEWMSASKIVCRVGQAKNDKGDIIVTTKSGGRGTSTVSFKLLKPEKIG | soluble
11 | MACTGYEELRKWFLDKMVNACRAIRDQKEDQSNSAAKKAMLYIQENYNKDISLDDVSGIVNISPYYFSKIFKEETGENFIEYVTKVRIEKAKEFLAQPDISIKEAGIRSGYTDPNYFSRIFKKQTDMTPSEYKTRYGK | not soluble
12 | MASFKVKPEHTGPPDLYYNETEAAKYASNSHITAIQHEMAERALELLALPEGKSGFLLDIGCGTGMSSEVILDAGHMFVGVDVSRPMLEIARQDEDLESGDFIHQDMGLGMPFRPGSFDGAISISAIQWLCHANASDENPRKRLLFFFQSLYGCLGRGSRAVFQFYPENDEQCDLIMGQAHKAGFNGGLVVDFPEAAKRKKVYLVLMTGGVVQLPQALTEDGEESRTQIDNAGRRFVWNSRKNEKVAKGSKAWIEAKRQRQIKQGRDVRHESKYSGRKRKTKF | not soluble
13 | MSSVPSAHSEIVGALYRDHRGWLLAWLRRNVACPQRAQDLSQDTFVRLLGRDELQLPREPRAFLATIAKGLMFDYFRRAALEQAYLGELLQVPEAEQPSPEEQLLILEDLKAIDRMLGTLSSKARAAFLYNRLDGLSHGEIAERLGVSVSRVRQYLAQAVRQCYVALYGEPT | not soluble
14 | MSLTHCKNQHCGGELGDYTGYIESPNYPGDYPANAECVWHIAPPPKRRILIVVPEIFLPIEDECGDVLVMRKSASPTSITTYETCQTYERPIAFTSRSRKLWIQFKSNEGNSGKGFQVPYVTYDEDYQQLIEDIVRDGRLYASENHQEILKDKKLIKALFDVLAHPQNYFKYTAQESKEMFPRSFIKLLRSKVSRFLRPYKEGHHHHHH | not soluble
15 | MGSDKIHHHHHHTHSVETPYGSVTFTVYGTPKPKRPAIFTYHDVGLNYKSCFQPLFRFGDMQEIIQNFVRVHVDAPGMEEGAPVFPLGYQYPSLDQLADMIPCILQYLNFSTIIGVGVGAGAYILSRYALNHPDTVEGLVLINIDPNAKGWMDWAAHKLTGLTSSIPDMILGHLFSQEELSGNSELIQKYRGIIQHAPNLENIELYWNSYNNRRDLNFERGGETTLKCPVMLVVGDQAPHEDAVVECNSKLDPTQTSFLKMADSGGQPQLTQPGKLTEAFKYFLQG | soluble
16 | MPVLSKLARKMYSRLKSSLLNHFQKGANSSSNPSYNGLTKEEKKRLRHSLAECQLNDVYDPDSAHSSYQHSVSFVTTKPSSRHHQQTIDTSGHAPLAPQEVYLDETSSNSASTFYSDLLASSFSSAGGNSSFTCDYEDTNETSFIMSSGLPALSWNVQYIGSFPISGSYVDNLGRRIDSFQPTTSGGMQSVELSISVLGVKICCEKTVLMSHSLRRVTDISARPDTQNIGYVATEPVGRTYRRLCHVFHCQSLKEVSLKIHSVNVKLPGKSENRKSSTGVWALFAPIADHHIVTPVALFRLNLYNFKIGKNLQNNFEMWAIKIFKMFMGRNIFDQQDPEITIFKVSNSPAEEIENVLRNANQSQVLAAKQPKSAVSTSSMHPTNTASTMTEKRSASTVFLNRFLGKKGSQTVDESGQCKRKRRPVSAVFSSAIHRLSSSTSSVNPKRMSTIEPQAPTREQLLQLQNQMRCAASSPVPEEPRPTDLCAASTTTSTSSVASSSSSNGSSSSTDTSPVPPAPQTALVYDEKLGEWIYPIDQALMTQLDNCSYFVGQPTKDSMVYNLNTQPEGAFVIRYSESKSKCLALSMRVPCSHNPSGISHYLIIRNEQGFRLKLSATKKPFPTLQMMLTHHSVLESHLPCTLHFVQWQKTNFKQLAAMSTVERPLRTFNRHSTALTKIDENRNVTATSTPYRPSGRCGGGIDDFTTPKNRRTRNEINAMRRSHFFDDRQIVL | not soluble
17 | MGSDKIHHHHHHMNLPTASRLQFTPDLNICRILNGMWQVSGAHGRINPQAAIETMFKYLDAGFTTWDLADHYGPAEDFIGEFRCQLIDTRGKDALSKVQAFTKWVPRPGKMTKKLVEENIDISLRRMNVESLDLMQFHWWEYQDKNYLDALKYMAELQTEGKIKHLGLTNFDTENLKLITEAGIKIVSNQVQFSLIDRRPEVNMAEFCQQHDIKLFTYGTLCGSLLSENYLGKPEPRGSDLSTASLKKYKNMIDAWGGWQLFQELLAILKEIANKHKVSISNVAVRYILDQPTVGGVIVGARLGVSEHIEDNAKVFSFSLDADDRDRISAVSRQSRDLYQLIGDCGDEYRR | not soluble
18 | MHDALRAYIEKYASEKISDADFEEVKKAFTFKRYKKGQFLLQEGEVSKYTAFVLKGSMRQYSVDAKGTEHIIHFGIENWWVGDRESSTMLTPSNYNIDAIEDTEVLLTTSEDLQQLTAALPVIGKMVNTMNQRNFIASQKRIHDALSLTAEERYLELLKNHPDFLQRFPQTMLASYLGITAETYSRIRKKALK | not soluble
19 | GMDIQNMPREQLGVCAEGNLHSVYLMFNANDNVESQLRPCIANVAQYIYELTDQYSDSAFNGFVAIGANYWDSLYPESRPEMLKPFPAMQEGNREAPAIEYDLFVHLRCDRYDILHLVANEISQMFEDLVELVEEERGFRFMDSRDLTGFVDGTENPKGRHRQEVALVGSEDPEFKGGSYIHVQKYAHNLSKWHRLPLKKQEDIIGRTKQDNIEYESEDKPLTSHIKRVNLKDENGKSIEILRQSMPYGSLKEQGLMFISTCRTPDHFEKMLHSMVFGDGAGNHDHLMHFTSALTGSSFFAPSLDFLMQFDN | soluble
20 | MGSDKIHHHHHHMITYQEQWQKMQMALAIRRIPQAMLFSGSLHCGLIEFTNQVIKLLLCKIKQNEPCLTCMDCQMIERFEHPDVEWIKPERSGGIIKIDQIRGLQSTAFLTPQRTNHKLIIIESAESMNIAASNALLKILEEPAQHTIFILLAQQIGNIPPTVLSRCQITQFAVFDELPCNNLLALGEYYTQELNSTMVFKHSESILEGLIAIIERREHPCTLAAQWIQHELSAFLWFLYLIYSQLQYMHLFRVAYSGTLTKQLNKLSSLLNPVMIFAQVDKINTLLRKLSHNMNINHTLVLEDLLFSLVVDY | not soluble
